Experimental data from US20250127918A1, “SITE-SELECTIVE CONJUGATION OF A PHARMACEUTICAL AGENT TO AN ANTIBODY USING AN AFFINITY PEPTIDE” (priority 2023, published 2025).

Molecular target: T1, Trastuzumab (Homo sapiens, UniProt P01857, D239E/L241M)
T1 construct: purchased Syd Labs Inc; MedChemExpress LLC; Bio X Cell
Test: Bioconjugation handle / GLP1 transfer to trastuzumab, analyzed by Q-ToF LC-MS
Format: biochemical
Protocol: The conversion rate for each reaction was calculated by one of the following methods. Determination by LC-MS: Reported yields based on LC-MS spectra were determined by extracting the total ion current (TIC) spectra of all protein-containing species in the chromatogram utilizing Agilent MassHunter 6.0 software with BioConfirm package. These extracted chromatograms were deconvoluted utilizing a maximum entropy algorithm and abundance of each species determined using total ion count.
A reaction solution corresponding to 9.0 μg of IgG was taken into a PCR tube and diluted with Tris buffer (100 mM, pH 8.1) to a final volume of 6 μL. […] Afterward, DTT (200 mM in water, 2 μL) was added, and the mixture was further incubated at 37° C. for 1 hour. Finally, the solution was diluted to a volume of 40 μL with a mixture of water and acetonitrile (95:5), and 8 μL of the diluted solution was injected into LC-MS.
Reactions were performed on a 20 μL scale using 0.2 mL PCR tubes (FIG. 61). First, the electrophile-attached Z33 peptide reagent was dissolved in water to prepare a 2 mg/mL solution. Trastuzumab (MedChemExpress LLC. or Bio X Cell), electrophile-attached Z33 peptide reagent (2 mg/mL), and buffer were added to achieve final concentrations of 10 μM, 200 μM, and values listed in the following table, respectively. If the HEPES was used as a buffer, NaCl solution (4M, 1 uL) was added to the reaction mixture. […] The resulting reaction solution was quenched with a 100 mM glycine buffer of 100 mM Tris buffer and analyzed by LC-MS. Sample preparation for LC-MS analysis was performed in the same manner previously described. […] Therefore, a post-processing step was implemented to remove electrophiles using an Amicon® filter. The reaction mixture was diluted to 200 μL with citrate buffer (100 mM, pH 2.7) and filtered through an Amicon® filter (0.5 mL, 50KMWCO) at 14000 rcf for 7 minutes. […]
Reactions were performed on a 20 μL scale using 0.2 mL PCR tubes (FIG. 61). […] The resulting reaction solution was quenched with a 100 mM Tris buffer and analyzed by LC-MS (FIG. 53, Table 8).

Light chain total conversion (20 equivalents, PBS, room temperature, 24 h): 12% | Light chains modified with the electrophile (hIgG1-2, excess (20 eq.) reagent): less than 2% | Modifications incorporated into the heavy chain of Tmab (hIgG1 trastuzumab (1 eq.), peptide 20 eq., after 24 h): up to 99%
Sequence: FNMQQQRRFYEALHD PNLNHcyEQRNAKIKSI RDD [PEL-21]
